Assay results reported in patent US20100234450, “Molecular targeting agents” (published 2010).

Tests used:
[1] = biological target: T1, PSMA (prostate-specific membrane antigen) (Homo sapiens, UniProt Q04609 Q04609:1-750); test: cell binding to PSMA-positive 22Rv1(1.7) cells; details: tags: none, endogenous on 22Rv1(1.7) and LNCaP prostate cancer cells, chain copies: 2
[2] = biological target: T1, PSMA (prostate-specific membrane …); test: cell binding to PSMA-positive 22Rv1(1.7) cells; Bmax much lower on PSMA-negative 22Rv1(wmr) cells; details: tags: none; endogenous on 22Rv1(1.7) and LNCaP prostate cancer cells; chain copies: 2; label: 111In

T1 sequence (Q04609 whole entry, one chain of several): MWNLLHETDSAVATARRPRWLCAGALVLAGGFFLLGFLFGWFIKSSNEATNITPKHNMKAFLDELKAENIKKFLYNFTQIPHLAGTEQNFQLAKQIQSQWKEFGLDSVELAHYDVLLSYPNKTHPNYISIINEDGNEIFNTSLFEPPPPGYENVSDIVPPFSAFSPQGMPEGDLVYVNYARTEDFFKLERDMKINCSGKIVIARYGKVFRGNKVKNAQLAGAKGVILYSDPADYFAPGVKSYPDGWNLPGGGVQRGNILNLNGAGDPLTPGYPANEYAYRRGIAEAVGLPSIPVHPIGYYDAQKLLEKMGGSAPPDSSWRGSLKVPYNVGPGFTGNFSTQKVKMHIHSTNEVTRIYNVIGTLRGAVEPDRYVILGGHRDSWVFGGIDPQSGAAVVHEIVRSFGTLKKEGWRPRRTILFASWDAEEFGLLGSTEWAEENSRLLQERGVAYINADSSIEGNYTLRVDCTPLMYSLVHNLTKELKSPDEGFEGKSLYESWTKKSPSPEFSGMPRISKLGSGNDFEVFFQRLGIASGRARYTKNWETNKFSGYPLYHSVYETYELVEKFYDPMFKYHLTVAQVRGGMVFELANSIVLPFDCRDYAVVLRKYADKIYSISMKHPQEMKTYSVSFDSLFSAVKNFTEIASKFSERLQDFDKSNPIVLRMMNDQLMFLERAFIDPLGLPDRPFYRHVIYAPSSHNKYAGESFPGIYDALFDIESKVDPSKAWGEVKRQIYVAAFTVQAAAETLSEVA

Binder: GGGAGGACGAUGCGGAUCAGCCAUGUUUACGUCACUCCU (ssRNA) [A10-3.2 (32P)]
- Kd ([1]; label: 5'-32P): 106 nM

Binder: GGGAGGACGAUGCGGAUCAGCCAUGUUUACGUCACUCCU (ssRNA, 5'-DOTA chelator via linker) [111In-DOTA-A10-3.2]
- Kd [2]: 119 nM

Binder: GGGAGGACGAUGCGGAUCAGCCAUGUUUACGUCACUCCU (ssRNA, 5'-NOTA chelator via linker) [64Cu-NOTA-A10-3.2]
- Kd ([1]; label: 64Cu): 131 nM
